Tested on: MS2 coat protein
Assay: apparent KD of MS2 coat protein; designed switch direction (-1 OFF switch, 1 ON switch): -1; higher = weaker reporter binding
Method in brief: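 The buffer was Tris-HCl pH 7.5 with KCl, MgCl2, BSA, DTT, tRNA and Tween-20. In it, SNAP-549-labelled MS2 coat protein was titrated in doubling steps from 0.7 or 1.5 nM to 3 µM over chip-bound RNA switches transcribed by stalled E. coli RNA polymerase on Illumina chips. Apparent KD is the per-design median over clusters of curve fits to normalised fluorescence.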

[1] = Eterna round: R95, input ligand: FMN 200 uM
[2] = Eterna round: R95, input ligand: microRNA oligo, concentration not stated
[3] = Eterna round: R95, input ligand: none
[4] = input ligand: microRNA oligo, concentration not stated

Sequence | apparent KD of MS2 coat protein [1] [µM] | apparent KD of MS2 coat protein [2] [µM] | apparent KD of MS2 coat protein [3] [µM] | apparent KD of MS2 coat protein (input ligand: FMN 200 uM) [µM] | apparent KD of MS2 coat protein (input ligand: none) [µM] | apparent KD of MS2 coat protein [4] [µM]
GAGAAACAUGAGGAUCACCCAUGUAAGGAUAUGCUGAAAAUCACGGAUUAAUCGUGCAGCAGAAGGUACAAAGG [Mat - Mod of my Eli Mod D42] (puzzle: Exclusion 1) | 0.142 | 0.11 | 0.143 |  |  | 
GAGAACUGAGGAUAUACAUGAGGAUCACCCAUGUGAAGAAGAAAGUAGUGAUGGUUGGGUAGAAGGCAGAGAGA [JR_Ex3_Sub065] (Eterna round: R97, puzzle: Exclusion 3) |  |  |  | 0.0524 | 0.0463 | 
GAGAAUUCAUAGGAUAUCGUAUGGAUAAUUUAACGAGAAGGAUGAACAUGAGGAUCACCCAUGUGGUAUCAUGG [salish99_ex6_r3_002] (puzzle: Exclusion 6) | 0.0835 | 0.0875 | 0.095 |  |  | 
GAGACACAUGAGGAUCACCCAUGUGAGGAUAUCCGAAGGACCAAAUUAAGAAUUAAAGGGAGAAGGCACAUAAA [Exclusion 1 V5] (puzzle: Exclusion 1) |  | 0.0272 |  |  |  | 
GAGAGGUCAGGAUAUACGGAGAGAGAGAGUAGGUGAGGGUAACAUGAGGAUCACCCAUGUAGAAGGGACUAAGG [JR_Exclu2_Sub075] (puzzle: Exclusion 2) | 0.0517 | 0.0484 | 0.0463 |  |  | 
GAGCAGCGAGGAUAUACCUGGACCUGGUCCCAGGCCGAUCAACUUGAGGAUCACCCAAGUAGAAGGCGUGGCUC [Ceortiti] (Eterna round: R97, puzzle: Exclusion 2) |  |  |  | 0.322 | 0.401 | 
GAGGCAUGCCGAGGUCCACACAUGAGGAUCACCCAUGUAAUGACAGGCUUUUUACUCGUUUUACCGCUAUCGCGUUC [Gedied] (puzzle: Sensor v3, turn-off variant 1) | 0.0149 | 0.0217 | 0.0127 |  |  | 
GAGGUGUUAGGAUAUCGGAGAUGGAGACCGACGGGAUGAGCCGAGAAGGAACAUGAGGAUCACCCAUGUAGGUG [JR_Exclu4_Sub033] (puzzle: Exclusion 4) |  | 0.386 |  |  |  | 
GAGUACUCAGGAUAUGCAUGAGUAGUGAUGUAGAGAGUGUGACAUGAGGAUCACCCAUGUAGAAGGGAGGAAUG [Version #1] (Eterna round: R97, puzzle: Exclusion 2) |  |  |  | 0.338 | 0.105 | 
GAGUGACAUGAGGAUCACCCAUGUGAGGAUAUCGGACGGACCAAAUUAACAACACCCGCGAGAAGGCACAUCGG [Exclusion 1 V21] (puzzle: Exclusion 1) |  | 0.11 |  |  |  | 
GAGUGACAUGAGGAUCACCCAUGUGAGGAUAUCGGACGGACCAAAUUAACAACCGCCGCGAGAAGGCACAUCGG [Exclusion 1 V21] (puzzle: Exclusion 1) | 0.13 | 0.144 | 0.129 |  |  | 
GAGUUAACAUGAGGAAUAUACAUGAGGAUCACCCAUGUUAACAAAAUUUUUGCUCGUCUUAUAACAACAAUUAACUC [Alarm 3 - Jieux - Sensor, turn-off variant 1] (Eterna round: R97, puzzle: Sensor, turn-off variant 1) |  |  |  | 0.272 | 0.151 | 
GAGUUAGCGUGAGGAAUAUACAUGAGGAUCACCCAUGUUAGCAAAUAUAUUGCUCGUCUUAUAACAACAAUUAACUC [Alarm 9 - Jieux - Sensor, turn-off variant 1] (Eterna round: R97, puzzle: Sensor, turn-off variant 1) |  |  |  | 0.0136 | 0.0143 | 
GAUACACGUUCAGGAUAUCGCGCCCAAUUACACCUCUUCCGACGGACAUGAGGAUCACCCAUGUGCGAGAAGGGAACCAAAACU [Orquonbedi] (Eterna round: R96, puzzle: Exclusion NG 2) |  |  |  | 0.0136 | 0.0174 | 0.0132
GAUCAACAUGAGGAUCACCCAUGUGAGGAUAUGAUACUAUGUACUUCGGUACAUAGUAUCAGAAGGCAUGUAAA [Ex1-3: 78] (puzzle: Exclusion 1) |  | 0.0545 |  |  |  | 
GAUCAACAUGAGGAUCACCCAUGUGAGGAUAUGUAUCAUAGAUCUUCGGAUCUAUGAUACAGAAGGCAUGUGAA [Ex1-3: 101] (puzzle: Exclusion 1) |  | 0.0678 |  |  |  | 

Sequence | apparent KD of MS2 coat protein [1] [µM] | apparent KD of MS2 coat protein [2] [µM] | apparent KD of MS2 coat protein [3] [µM] | apparent KD of MS2 coat protein (input ligand: FMN 200 uM) [µM] | apparent KD of MS2 coat protein (input ligand: none) [µM] | apparent KD of MS2 coat protein [4] [µM]
GAUCAACAUGAGGAUCACCCAUGUGAGGAUAUUGACUUGCUCACUUUCCCAUCAGAGUCGAGAAGGCGCAUCUG [1986#21] (Eterna round: R97, puzzle: Exclusion 1) |  |  |  | 0.0281 | 0.0408 | 
GAUCAGCUUGUGAGGAUAUCCGGGCUUAAAGGCUAGGAGAAGGUACAUGAGGAUCACCCAUGUAGAGUCCUGGG [Zageesen] (puzzle: Brourd's mod of Exclusion 4) |  | 0.0504 |  |  |  | 
GAUCAGGUAGGAUAUGCAGGAUCGGACUUGAGGAUCACCCAAGUGGCCAAAGUGCGUCCCGCAGAAGGGCCAAAAC [Biinxelace] (Eterna round: R97, puzzle: Exclusion 5) |  |  |  | 0.439 | 0.618 | 
GAUCCACAUGAGGAUCACCCAUGUGAGGAUAUGAUACUAUGUACUUCGGUACAUAGUAUCAGAAGGCAUAUGAA [Ex1-3: 47] (Eterna round: R96, puzzle: Exclusion 1) |  |  |  | 0.199 | 0.0417 | 0.0332
GAUCCACAUGAGGAUCACCCAUGUGAGGAUAUGAUACUAUGUACUUCGGUACAUAGUAUCAGAAGGCAUAUGAA [Ex1-3: 47] (puzzle: Exclusion 1) |  | 0.0456 |  |  |  | 
GAUCCGUUAGGAUAUGCGGGUGUCACCAGAGUGAUAGCCUCGCAGAAGGAACAUGAGGAUCACCCAUGUAGCAA [Eternabot (L1) Solution 92] (Eterna round: R97, puzzle: Exclusion 4) |  |  |  | 0.111 | 0.0386 | 
GAUCGACAUGAGGAUCACCCAUGUCAGGAUAUCUACAUUGAAGCUUCGGCUUCAAUGUAGAGAAGGGACAUAAU [E1/13-B1] (Eterna round: R97, puzzle: Exclusion 1) |  |  |  | 0.0386 | 0.0397 | 
GAUCGUUUAGAGGAUAUCAUGCUAAACAUUACAUGAGAAGGCUAGACAUGAGGAUCACCCAUGUAUGCUCGUGA [Exclusion 6 - 9:a] (puzzle: Exclusion 6) | 0.0208 | 0.014 | 0.0148 |  |  | 
GAUGAGGUAGGAUAUACGAUAAUAUAGGGUAGAUAUAUAACACAUGAGGAUCACCCAUGUAGAAGGACCAGUAG [Mat - Exclusion 2 - Mod of my Tesla design - D66] (Eterna round: R96, puzzle: Exclusion 2) |  |  |  | 0.143 | 0.0423 | 0.0303
GAUGAGGUAGGAUAUACGAUAAUAUAGGGUAGAUAUAUAACACAUGAGGAUCACCCAUGUAGAAGGACCAGUAG [Mat - Exclusion 2 - Mod of my Tesla design - D66] (puzzle: Exclusion 2) |  | 0.0334 |  |  |  | 
GAUGCUUCGGCAUCUACAAGCUUUUUGCUCGUCUUAUUAACAUGAGGAUCACCCAUGUACAAGAGACCUCAUGUAUU [Sensor v3 - turn-off variant 2 - 12] (puzzle: Sensor v3, turn-off variant 2) | 0.125 | 0.0143 | 0.202 |  |  | 
GAUUAACAUGAGGAUCACCCAUGUGAGGAUAUUGACUUGCUCACUUUCCCAUUAGAGUCGAGAAGGCGCAUCUU [1986#18] (Eterna round: R97, puzzle: Exclusion 1) |  |  |  | 0.0252 | 0.0286 | 
GAUUAACAUGAGGAUCACCCAUGUGAGGAUAUUGACUUGCUCACUUUCCCAUUUGAGUCGAGAAGGCGCAUCUG [1986#22] (Eterna round: R97, puzzle: Exclusion 1) |  |  |  | 0.0688 | 0.039 | 
GAUUACCUAACAAGUAAGCACAUGAGGAUCACCCAUGUGGAGGGUCAUGUCAUGCUCAAGAUGCUCGUCAUUUCUAG [Eternabot (L2) Solution 38] (Eterna round: R97, puzzle: Sensor, turn-off variant 1) |  |  |  | 0.18 | 0.193 | 
GAUUAUGCAAGCUUUAGGGACAUGAGGAUCACCCAUGUUCGUCUUAUUGAUCUAGGUACGCUGACGUACCUAGAUCU [JL-sv1-2.32 Brourd mod] (puzzle: Sensor v3, turn-off variant 1) | 0.017 | 0.0446 | 0.0148 |  |  | 
GAUUAUGCGAGCUUUAGGGACAUGAGGAUCACCCAUGUUCGUCUUAUUAAUCUAGGUGCACUGACAUACCUAAAUCU [JMF 87] (puzzle: Sensor v3, turn-off variant 1) | 0.0207 | 0.03 | 0.0217 |  |  | 

Source: the supplement of paper PMC9170038
